Data: article PMC6093232, “PROMIS, global analysis of PROtein–metabolite interactions using size separation in Arabidopsis thaliana” (The Journal of Biological Chemistry, 2018)

Molecular target: His6-GAPC1/2 (cytosolic glyceraldehyde-3-phosphate dehydrogenase, GAPC1 or GAPC2) (A. thaliana, UniProt P25858 1-338)
Test: nano-DSF (thermal shift, Prometheus NT.48); plant GAPCs 0.2–0.25 mg/ml with 25 μM (GAPC1/2, GAPCP1) or 50 μM (GAPCP2) dipeptide in 1× PBS; thermal ramp 2 °C/min, 20–90 °C; Tm from F350/F330
Settings: both partners purified

Chain of His6-GAPC1/2 (cytosolic glyceraldehyde-3-phosphate dehydrogenase, GAPC1 or GAPC2) (P25858 whole entry): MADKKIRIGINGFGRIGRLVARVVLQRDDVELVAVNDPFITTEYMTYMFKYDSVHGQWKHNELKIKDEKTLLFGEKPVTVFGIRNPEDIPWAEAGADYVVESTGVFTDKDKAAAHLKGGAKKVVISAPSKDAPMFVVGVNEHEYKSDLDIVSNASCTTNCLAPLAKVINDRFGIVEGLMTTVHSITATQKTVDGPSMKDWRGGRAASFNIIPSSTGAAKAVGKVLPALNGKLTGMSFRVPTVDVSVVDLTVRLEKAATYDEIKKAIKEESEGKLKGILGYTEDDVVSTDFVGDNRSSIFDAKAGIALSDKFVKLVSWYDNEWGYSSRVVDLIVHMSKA

B1: dipeptide Tyr–Asp (peptide)
peptide: YD
notes: free dipeptide Tyr–Asp, printed in three-letter code; source: synthetic peptide; bought: Eurogentec
decrease of Tm with 25 μM Tyr–Asp: ~1 °C
